Measurements published in patent US20100297662A1 (TAO HEALTH LIFE PHARMA, published 2010).

Tests used:
amylospheroid 42 [1] = molecular target: T1, amylospheroid 42 (Homo sapiens (Human), UniProt P05067 672-713); assay: SPR (BIAcore), antigen on CM5 chip, antibody in solution
T1 construct: also called 42ASPD; ASPD
Description: (§1) 10 μg/ml amylospheroid (42ASPD), amyloid β monomer (42Aβ, 40Aβ), and Aβ fibril (fibril) prepared from 40Aβ were coupled to CM5 sensor chips of BIACore 3000 (BIAcore) at a concentration of […] in 50 mM acetate buffer. With the use of an antibody solution subjected to two-fold serial dilution from the maximal concentration of 100 nM in a buffer (10 mM HEPES, pH 7.4, 0.15 M NaCl, 3 mM EDTA, 0.005% Surfactant P20), the association rate constant and the dissociation rate constant were determined. With the use of these constants, the dissociation constant was calculated by the following equation.
(§2) Through the same procedure as that in Example 3(3), 42ASPD, 40Aβ (Aβ monomer), and Aβ fibril (42 fibril) prepared from 42Aβ were coupled to CM5 sensor chips, and dissociation constants of the hamster antibody haASD2, the humanized antibody huASD2, and the anti-Aβ antibody 3D6 (US 20030165496 A1) with respect to the above-described proteins were determined. The anti-Aβ antibody 3D6 was produced as follows: synthesis genes corresponding to the mouse antibody light chain variable domain 3d6vl.aa and the synthesis gene corresponding to the heavy chain variable domain 3d6vh.aa of the same described in US 20030165496 A1 were produced by a conventional method, and were joined to the light chain constant domain and the heavy chain constant domain of a known mouse antibody, respectively, on the basis of the information of the aforementioned patent; by so doing, it was produced as a mouse IgG2b/κ molecule.

[2] = molecular target: T2, Aβ fibril (42 fibril) prepared from 42Aβ (Homo sapiens (Human), UniProt P05067 672-713); assay: as above
T2 construct: Fibrillar self-assembly of Aβ1-42; also called amyloid fibril
Description: as §1, §2

[3] = molecular target: T3, monomeric amyloid β40-protein (Aβ1-40); assay: as above
T3 construct: also called 40Aβ; Aβ1-40 monomer
Description: as §1, §2

amylospheroid 42 [4] = molecular target: T1, amylospheroid 42; assay: SPR, ratio of Kd values (40Aβ against 42ASPD)
Description: as §1
(§3) Through the same procedure as that in Example 3(3), 42ASPD, 40Aβ (Aβ monomer), and Aβ fibril (42 fibril) prepared from 42Aβ were coupled to CM5 sensor chips, and dissociation constants of the hamster antibody haASD2, the humanized antibody huASD2, and the anti-Aβ antibody 3D6 (US 20030165496 A1) with respect to the above-described proteins were determined. […]

[5] = molecular target: T4, N-terminus peptide (Aβ1-5) of the monomeric amyloid β-protein; assay: competitive ELISA with 5-residue Aβ peptides, same method as Example 4
T4 construct: Synthetic 5-residue peptide
T4 peptide: DAEFR
Source text: Which one of Aβ five residue peptides the humanized antibody huASD2 was joined to was examined using the same method as that in Example 4.

amylospheroid 42 [6] = molecular target: T1, amylospheroid 42; assay: SPR, ratio of Kd values (42 fibril against 42ASPD)
Description: as §1, §3

T1 sequence (P05067 672-713 limits assumed): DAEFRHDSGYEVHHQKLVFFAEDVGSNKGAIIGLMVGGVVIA
T2 sequence (P05067 672-713 limits assumed): as above
T3 sequence (peptide, as listed by the source): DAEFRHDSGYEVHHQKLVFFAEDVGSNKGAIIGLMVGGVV

Kd (amylospheroid 42 [1]): 0.18 nM
Kd [2]: 1.15 nM
Kd [3]: 105 nM
fold higher affinity with ASPD than with amyloid β-monomer (amylospheroid 42 [4]): ~580 times
binding result [5]: binds
fold higher affinity with ASPD than with amyloid fibril (amylospheroid 42 [6]): ~6.4 times
B1: humanized antibody huASD2 (antibody, V domains shown)
VH: EVQLVESGGGLVKPGGSLRLSCAASGFTFSDYFMSWVRQAPGKGLEWVGGIEIKSYFYATYYFGSVKGRFTISRDDSKNTLYLQMNSLKTEDTAVYYCTTNREVGGLDNWGQGTLVTVSS
VL: QSVLTQPSSLSASPGASASLTCTLRSGISVGGKNIYWYQQKPGSPPQYLLKYSSYSNKQLGPGVPSRFSGSKDASANAGILLISGLQSEDEADYYCSIHESNAYVFGGGTKLTVLG
notes: Humanized from haASD2; expressed from plasmids ASD2RHApG1D200 (heavy chain) and ASD2RLApLN100 (light chain); also called RHA/RLA; ASD2RHA/ASD2RLA
